This note sets out measurements from patent US20250163176A1, “MONOCLONAL ANTIBODY AGAINST TROP2 AND USE THEREOF” (INSTITUTE OF MEDICAL BIOTECHNOLOGY, CHINESE ACADEMY OF …, priority 2022, published 2025).

Holding throughout (assay): cytotoxic activity against tumor cells cultured in vitro (CCK-8)
Assay type in all cases: cell-based

The subject of one assay is A431. The following applies: A431, 48 h culture. On the procedure: (§1) Tumor cells in the logarithmic growth phase after subculture were selected and prepared into a single-cell suspension and cell counting was performed. The cell concentration was adjusted to 3×10^3 cells/well, and the cells were inoculated into a 96-well plate with 80 μL/well. After 24 h of incubation, 20 μL of anti-Trop2-IgG, LDM, and Anti-Trop2-IgG-LDM diluted to different concentrations were added, with three parallel wells for each concentration. After 48 h of culture, 10 μL of CCK-8 reagent was added to each well in the dark, followed by shaking for 3 min and incubation in an incubator for 1 h. The 96-well plate was taken and shaken for 2 min, and the OD value at 450 nm was measured using a microplate reader. In addition to the drug-treated groups at different concentrations, three parallel wells each for the drug-free control group and the cell-free blank group were set up.

A further assay relates to A549. The following applies: A549, 48 h culture. The method, then:
as §1

In the next assay the test system is KYSE150. The following applies: KYSE150, 48 h culture. On the procedure:
as §1

Another assay deals with ECA109. Conditions: ECA109, 48 h culture. On the procedure:
as §1

By IC50 is commonly meant the concentration at which inhibition is half-maximal. Read a high IC50 as weaker potency.

B1: LDM: antitumor antibiotic lidamycin: protein LDP (SEQ ID NO:37) with bound active enediyne (AE) chromophore of Formula I (protein)
chain: APAFSVSPASGLSDGQSVSVSVSGAAAGETYYIAQCAPVGGQDACNPATATSFTTDASGAASFSFVVRKSYTGSTPEGTPVGSVDCATAACNLGAGNSGLDLGHVALTFG
modifications: bound enediyne chromophore
In the case of B1, the IC50 with A431 is 0.007 ± 0.002 nM; in the assay on A549 it was 0.169 ± 0.017 nM; in the assay on KYSE150, 0.995 ± 0.008 nM; with ECA109 it was 0.445 ± 0.034 nM.
